Results from patent US11099176B2 (Duke University, priority 2015, dated 2021).

B1: pgLacBP10: protein from Polymorphum gilvum (SEQ ID NO: 10, 24, 124) (protein)
chain: MTEISRRGLLAGSVFGGVALAAPTVARAQEAVEWRMQALWDAGTTPFEFEKKFVERVGELTEGRFKITLYSAGQIVPANQAFDAVRSGAFEMMKTFDGYEAGKIPAFAFTSTIPFGFPQSDQYEAWFYELGGLDLAREAYAKGGLFYIAPTVYGEEPMHSTVKIESIADMAGKKGRFVGLASAVMADLGVAVSPLATAEVYTALEKGLIDFADRGDLTANYEAGLGEVAKFIILPGVHQPTTATSYVANQAAYQKLPDGFKAALAVAAREISGSLRQHILVQDMEVLTKYKDQGVEVVRLDAADIAAARAKAVESWEKATKGDELATRVLKGQVDFMTSLGLL
B2: msLacBP6: lactate-binding protein from Marinobacter sp. (SEQ ID NO: 6, 20, 120) (protein)
chain: MTDITCKIETKGSARRRGFLKTLAVSAAISATLLASSVQAATTWKIQSVWDAGTVGYDLFKEWCDGMEEKTGGELKFTCFPAKAVAADNNGLFDAVRNGVLQGMNPFTLYWSGKIPASVFLSSYPAGPDQPHQWDTMFYSLGMLEKTREIYKKFGLFYVGPIQHDANIIHSKQPINSLDDLKGLKMRLPGGMVAEVFAKFGVAAVSLPGSDIFPALEKGTIDAADYVGPAVNWELGFSQVTKYILMGPPGIMSVYQPVDLMDLTVNLRAWNALDPKLQQIVEDEVRIYSQKHYLAIQKRNIEAMKKFEAAGTTVTRLSQEDLQEFRRAAIPIWYSWANKDEDAREIFDMQLEYMMNDTVGYITEDDIKGMN
B3: ttLacBP1: lactate-binding protein from Thermus thermophilus, seed sequence (SEQ ID NO: 1, 15, 115) (protein, listed as Thermus thermophilus)
chain: MKRVSRRAFLRRLGVGVAATAAFSPLAVAQARRYRWRIQTAWDAGTVGYSLFQKFTERVKELTDGQLEVQPFPAGAVVGTFDMFDAVKTGVLDGMNPFTLYWAGRMPVTAFLSSYALGLDRPDQWETWFYSLGGLDIARRAFAEQGLFYVGPVQHDLNIIHSKKPIRRFEDFKGVKLRVPGGMIAEVFAAAGASTVLLPGGEVYPALERGVIDAADFVGPAVNYNLGFHQVAKYIIMGPPETPAIHQPVDLMDFTINLNRWRSLPKPLQERFIAAVHEYSWIHYAGIQKANLEAWPKYRQAGVEVIRLSNEDVRKFRRLAIPIWFKWAKMDKYSREAFASQLEYMKGIGYVTDEELKGLSL
B4: psLacBP11: protein from Pseudomonas stuztzeri (SEQ ID NO: 11, 25, 125) (protein)
chain: MKRRHLFGAAALLATLALAGCKDEQSQAPNQQAAGEPAKTYHWKMVTAWPKNYPGLGTSAERLAERVNAMSGGRLTIKVYAAGELVPALEVFDAVSRGTAELGHGASYYWKGKVPTAQFFTSVPFGLSTSEMNAWLSKGGGQAFWDEAYAPFGVKPLVIGNTGMQMGGWYNKEINSLTDLKGLKIRMPGLGGEVLSRLGATTVNLPGGEVFTALQTGAIDATDWVSPYNDLAFGLHKAARYYYYPGWQEPQAVLELLINQKAFDSLPADLQAIVTEASLAASRDMHDDYVYNNALALEQLKQQGTELKRFPDEVLAAMREQSDLILGELAAQSELNGRIWASMKAFQAQVEPMHEISEKELYNWR
B5: fsLacBP13: protein from Flexistipes sinusarabici (SEQ ID NO: 13, 27, 127) (protein, listed as Flexistipes sinusarabici)
chain: MGMMKKLLYSLLIILLVASAGFTAEKKIRWKLAMTWGPTLHPLSDTAEHMAEIVKELSDGNFVINIDASNVHKAPFGIFDMVKLGQYEMGHTASYYYKGKNIAFLPLTTMPFGMTAPEQYAWFYYGGGLELMQEAYTKHGMLAFPGGNTGNQMGGWFTKEINSLDDLKGLKMRIPGFAGQIMSKLGVTVTNIPPGELYTALERGTVDAVEWTGPGMDINMGFHKIAKYYYTGWHEPGSEVEFLINEKEYNKLPEKYKKILKIAMKTAAYDMYIQSYEMNAEAWQQMKEKYPDIKVKVFPEEVLKEMKTAYDNLVASYEKESPMFKKIMESKRAYLDKVRDWTHISDYLYLKSTSESNLN
B6: Y187C (conjugate)
chain: MATTWKIQSVWDAGTVGYDLFKEWCDGMEEKTGGELKFTCFPAKAVAADNNGLFDAVRNGVLQGMNPFTLYWSGKIPASVFLSSYPAGPDQPHQWDTMFYSLGMLEKTREIYKKFGLFYVGPIQHDANIIHSKQPINSLDDLKGLKMRLPGGMVAEVFAKFGVAAVSLPGSDIFPALEKGTIDAADCVGPAVNWELGFSQVTKYILMGPPGIMSVYQPVDLMDLTVNLRAWNALDPKLQQIVEDEVRIYSQKHYLAIQKRNIEAMKKFEAAGTTVTRLSQEDLQEFRRAAIPIWYSWANKDEDAREIFDMQLEYMMNDTVGYITEDDIKGMN
modifications: conjugated fluorophore; msLacBP6 (with signal peptide replaced with M)
B7: rsLacBP12: protein from Rhodobacter sphaeroides (SEQ ID NO: 12, 26, 126) (protein)
chain: MTAFEKKAAYSRRSFLRTGALAGGAAAGSVLAAPAVLAQAPLVMKMQTSWPASDIWMDFAREYVTRVEEMSGGRIKVDLLPAGAVVGAFQVMDAVHDGVIDASHSVSAYWYGKSKAASFFGTGPVFGGSATTMLGWFYQGGGQDLYRELTQDILGMNIVGFYGFPMPAQPFGWFKTEVNGVADIQGFKYRTVGLAADLLQAMGMSVAQLPGGEIVPAMERGVIDAFEFNNPSSDMRFGAQDVAKNYYLSSYHQASESFEYTFNRDFYEDLDPDLQAILKYAVEAASTSNTALALRQYSADLATLAAENGVAVHRTPKDILSGQLEAWDKLIVDLEADEFFKKVLDSQRAWVEQVSYYELMNAADLGLAYEHHFPGKLKL
modifications: Rhodobacter sphaeroides
B8: tsLacBP7: lactate-binding protein from Thermus sp. (SEQ ID NO: 7, 21, 121) (protein)
chain: MQAPRFRWRIQSAWDAGTVGYTLFQRFAERVKELTDGQIEIQTFPAGAVVGTFDMFDAVKTGVLDGMHPFTLYWAGRMPVTAFLSSYPLGLDRPDQWETWYYALGGLDLARRAFEEQGLFYVGPVQHDYNLIHSKKPIKSFEDFKGVKLRVPGGMIADVFSAAGAATVLLPGGEVYPALERGVIDAADFVGPAVNYNLGFHQVTKYIIMGPPETPAIHQPVDLADITLNLSRWRAVPKNLQERFEAAVHEWSWIHYAGIQKANLETWPKYKAAGVQIIRLTTVDVRKFRRVAIPIWFKWAKQDKYAREAFASQLEYMKALGYVTDADVRGLSL
modifications: tsLacBP7 (with signal peptide replaced with M)
B9: adLacBP9: protein from Anaeromyxobacter dehalogenans (SEQ ID NO: 9, 23, 123) (protein)
chain: MKKTTSRSQPDTAPKASRRSFLKKAALGAAGVAAGAAAPTIHVAQAPITLRFQSTWPQKDIFHEFALDYAKKVNEMSGGRLKIEVLAAGSVVKAFDLLDAVSKGTLDGGHGVVAYWYGKNTALALWGSGPAFGMDPNMVLAWHHYGGGRQLLEEIYRSLNLDVVSLMYGPMPTQPLGWFKQKPIAKPDDMKGLKFRTVGLSIDIFNGLGAAVNALPGAEIVPAMDRGLLDAAEFNNASSDRVLGFPDVSKICMLQSFHQCSEQFEILFNGKRFQALPADLKSIISIAAQAASADMSWKAIDRYSSDYFEMRDKQGVKFYSTRPEILKRQLEIWDQVMEKRAAENPTFKKVLESQRRFAQRAARWQNDTNVDFKMAYNHFFGGKKKAT

How the values were obtained:
[1] = Thermal stability by SYPRO Orange thermal melt in a Roche LightCycler; assay type: physicochemical; settings: for Thermostability apoTm: ligand-free protein, SYPRO Orange, Roche LightCycler
Protocol: The lactate-binding properties of these proteins were determined experimentally (Table 3). These experiments comprise four successive steps: • 1. Synthetic gene construction. The amino acid sequence of the homology leads are back translated into DNA sequences. […] The predicted gene sequences are assembled de novo from synthetic oligonucleotides. • 2. Heterologous protein expression of the homologues in E. coli.

[2] = Lactate-mediated fluorescence emission response of fluorescent conjugates (cysteine and fluorophore scan); assay type: biochemical; design: key to Response Acrylodan Shape / Response Badan Shape / Response Badan Intensity: m, monochromatic; d, dichromatic (i.e. spectral shape changes); 0, no change
From the text: Semi-synthetic FRSs can be engineered by site-specifically attaching thiol-reactive, environmentally sensitive fluorophores that respond to ligand-mediated conformational changes. Identification of FRS candidates that can be used for sensing applications comprises three steps: • 1. Cysteine scan. Mutant lactate-binding proteins containing single cysteines are constructed for site-specific attachment of thiol-reactive fluorophores. […] Candidate positions fall into three classes: endosteric, replacing a residue that contacts the ligand directly; peristeric, located at the rim of the binding site; allosteric (Marvin et al., 1997, Proc Natl Acad Sci USA, 94, 4366-71; Marvin, 1998, J Am Chem Soc, 120, 7-11), located outside the binding site at sites that undergo local structural changes in concert with the hinge-bending motion. • 2. Fluorophore screening. Thiol-reactive, environmentally sensitive fluorophores are attached to each cysteine mutant prepared in step 1. • 3. Evaluation of the lactate-mediated change of all the fluorescent conjugates prepared in step 2. Responses to ligand binding in which there is both a change in fluorescence emission intensity and spectral shape are essential for chemometric applications, because such changes enable ratiometric measurements. Changes in spectral shape typically are accompanied by a shift in the wavelength of the emission intensity maxima. Three classes of fluorescent responses are possible: • i. No response. • ii. Monochromatic response (emission intensity increases or decreases without a change in spectral shape) • iii. […] Hypsochromatic: emission intensity shifts to shorter wavelengths upon binding ligand (“blue shift”). • ii. Bathochromatic: emission intensity shifts to longer wavelengths upon binding ligand (“red shift”). • 4.
We constructed seventeen single cysteine mutants in msLacBP6, exploring one endosteric, fourteen peristeric, and two allosteric positions. Two dominant electronic transitions give rise to fluorescence emission in these fluorophores with maxima in the blue (<500 nm) and green (>500 nm) regions, respectively.

[3] = Acrylodan conjugate of msLacBP6 cysteine mutant, response to lactate
[4] = Badan conjugate of msLacBP6 cysteine mutant, response to lactate

Molecule	Thermostability apoTm [1] [°C]	other results
B1	49	
B2	70	mid-point denaturation temperature [1]: 70 °C
B3	>100	
B4	60	
B5	46	
B6		Response Acrylodan Intensity [2, 3]: +; Response Acrylodan Shape [2, 3]: d^f; Response Badan Intensity [2, 4]: 0; Response Badan Shape [2, 4]: d^f
B7	48	
B8	>100	fluorescence response to lactate ([2]; in words): strong dichromatic responses
B9	48	
